Data reported in publication PMC6712418, “Distinct Binding Interactions of α5β1-Integrin and Proteoglycans with Fibronectin” (Biophysical Journal, 2019).
Each block holds one binder with its values, some of them ahead of it.

Target: T1, Bovine plasma fibronectin (bovine, UniProt P07589 33-2478)
T1 construct: fibronectin, bovine, from plasma; about 0.5 MDa, two similar subunits attached through disulfide linkages; Adsorbed unmodified on a gold surface from 20 ug/mL in PBS; source: bought: Thermo Fisher Scientific
Assay: dynamic single-molecule force spectroscopy (AFM); fibronectin adsorbed on a gold surface; integrin or proteoglycan tethered by PEG to the AFM tip; PBS; trigger force 500 pN, no dwell; retraction speed varied; Bell-Evans fit of rupture force against ln(loading rate), fm = 10^7 s^-1 assumed
Settings: both partners purified

T1 sequence (P07589 33-2478): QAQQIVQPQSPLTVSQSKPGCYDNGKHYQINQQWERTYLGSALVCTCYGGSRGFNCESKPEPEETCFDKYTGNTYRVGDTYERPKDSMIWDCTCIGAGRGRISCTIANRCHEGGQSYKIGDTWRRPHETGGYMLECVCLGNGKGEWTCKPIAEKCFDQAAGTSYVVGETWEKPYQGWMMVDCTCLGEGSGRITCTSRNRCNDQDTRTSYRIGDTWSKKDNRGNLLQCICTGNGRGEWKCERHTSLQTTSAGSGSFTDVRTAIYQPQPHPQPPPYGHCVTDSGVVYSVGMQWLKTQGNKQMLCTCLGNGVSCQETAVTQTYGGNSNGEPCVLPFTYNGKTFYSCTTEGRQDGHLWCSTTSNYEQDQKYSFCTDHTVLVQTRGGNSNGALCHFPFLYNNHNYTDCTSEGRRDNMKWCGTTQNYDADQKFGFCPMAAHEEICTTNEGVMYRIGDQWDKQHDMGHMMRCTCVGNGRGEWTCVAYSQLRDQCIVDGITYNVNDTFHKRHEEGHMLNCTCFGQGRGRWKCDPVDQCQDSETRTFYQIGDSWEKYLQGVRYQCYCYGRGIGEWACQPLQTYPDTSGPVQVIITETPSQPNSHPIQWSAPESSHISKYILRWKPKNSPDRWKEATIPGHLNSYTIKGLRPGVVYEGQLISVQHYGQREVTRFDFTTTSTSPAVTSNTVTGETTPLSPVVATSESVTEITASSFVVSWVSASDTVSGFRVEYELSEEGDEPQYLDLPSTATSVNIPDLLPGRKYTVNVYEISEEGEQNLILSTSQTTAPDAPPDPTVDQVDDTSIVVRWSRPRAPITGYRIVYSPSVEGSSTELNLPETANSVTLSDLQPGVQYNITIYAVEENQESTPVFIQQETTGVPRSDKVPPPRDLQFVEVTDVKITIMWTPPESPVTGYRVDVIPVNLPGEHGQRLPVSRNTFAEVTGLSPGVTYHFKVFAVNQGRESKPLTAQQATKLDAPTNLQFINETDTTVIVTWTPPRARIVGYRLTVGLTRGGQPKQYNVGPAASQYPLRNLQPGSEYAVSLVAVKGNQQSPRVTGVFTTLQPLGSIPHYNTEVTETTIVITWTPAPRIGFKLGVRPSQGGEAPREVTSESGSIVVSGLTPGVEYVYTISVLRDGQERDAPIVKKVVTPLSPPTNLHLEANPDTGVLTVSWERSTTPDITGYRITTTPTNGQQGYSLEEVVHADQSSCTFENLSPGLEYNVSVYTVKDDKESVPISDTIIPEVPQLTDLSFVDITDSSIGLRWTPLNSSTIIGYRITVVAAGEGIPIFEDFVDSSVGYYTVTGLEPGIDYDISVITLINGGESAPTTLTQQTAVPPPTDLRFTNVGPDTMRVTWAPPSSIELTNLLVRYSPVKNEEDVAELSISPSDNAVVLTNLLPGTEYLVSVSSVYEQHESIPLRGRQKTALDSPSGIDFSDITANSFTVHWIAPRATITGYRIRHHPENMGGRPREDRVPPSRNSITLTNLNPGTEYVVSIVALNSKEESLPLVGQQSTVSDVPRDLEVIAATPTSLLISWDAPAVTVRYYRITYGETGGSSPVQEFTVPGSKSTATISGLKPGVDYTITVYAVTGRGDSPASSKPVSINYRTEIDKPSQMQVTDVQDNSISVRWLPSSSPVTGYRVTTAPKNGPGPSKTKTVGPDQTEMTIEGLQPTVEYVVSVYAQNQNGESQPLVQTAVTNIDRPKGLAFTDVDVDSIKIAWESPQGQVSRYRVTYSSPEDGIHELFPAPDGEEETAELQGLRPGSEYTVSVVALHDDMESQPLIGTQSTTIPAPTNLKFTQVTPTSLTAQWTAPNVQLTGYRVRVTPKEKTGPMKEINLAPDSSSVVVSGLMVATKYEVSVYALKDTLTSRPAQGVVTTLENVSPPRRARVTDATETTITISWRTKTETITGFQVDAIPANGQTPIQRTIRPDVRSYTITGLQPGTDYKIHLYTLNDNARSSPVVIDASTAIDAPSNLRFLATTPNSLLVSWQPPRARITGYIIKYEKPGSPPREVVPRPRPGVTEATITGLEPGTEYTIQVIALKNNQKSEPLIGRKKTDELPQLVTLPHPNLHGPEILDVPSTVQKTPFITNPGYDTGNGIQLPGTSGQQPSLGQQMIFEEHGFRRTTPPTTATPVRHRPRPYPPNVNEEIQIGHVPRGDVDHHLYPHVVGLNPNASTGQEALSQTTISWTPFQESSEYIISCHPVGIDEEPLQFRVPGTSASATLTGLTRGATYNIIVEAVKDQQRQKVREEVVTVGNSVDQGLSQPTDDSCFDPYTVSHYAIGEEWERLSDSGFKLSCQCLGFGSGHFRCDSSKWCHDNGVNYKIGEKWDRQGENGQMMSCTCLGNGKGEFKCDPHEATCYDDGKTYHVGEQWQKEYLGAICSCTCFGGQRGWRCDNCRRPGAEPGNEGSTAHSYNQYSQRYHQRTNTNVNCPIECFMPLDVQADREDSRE

koff: 40 ± 4 s⁻¹
B1: Recombinant human decorin (natural protein, UniProt P07585 31-359, looked up)
chain: DEASGIGPEVPDDRDFEPSLGPVCPFRCQCHLRVVQCSDLGLDKVPKDLPPDTTLLDLQNNKITEIKDGDFKNLKNLHALILVNNKISKVSPGAFTPLVKLERLYLSKNQLKELPEKMPKTLQELRAHENEITKVRKVTFNGLNQMIVIELGTNPLKSSGIENGAFQGMKKLSYIRIADTNITSIPQGLPPSLTELHLDGNKISRVDAASLKGLNNLAKLGLSFNSISAVDNGSLANTPHLRELHLDNNKLTRVPGGLAEHKYIQVVYLHNNNISVVGSSDFCPPGHNTKKASYSGVSLFSNPVQYWEIQPSTFRCVYVRSAIQLGNYK
modifications: a single chondroitin or dermatan sulfate GAG chain attached at the N-terminus (proteoglycan); cysteines bound to the maleimide of an NHS-PEG-Mal linker on the AFM tip
notes: decorin, human, recombinant; 42-kDa core protein; No catalogue number printed; The GAG chain is told of decorin in general; source: bought: R&D Systems

koff: 2.4 ± 0.4 s⁻¹
B2: Recombinant human syndecan-4 (natural protein, UniProt P31431 19-145, looked up)
chain: ESIRETEVIDPQDLLEGRYFSGALPDDEDVVGPGQESDDFELSGSGDLDDLEDSMIGPEVVHPLVPLDNHIPERAGSGSQVPTEPKKLEENEVIPKRISPVEESEDVSNKVSMSSTVQGSNIFERTE
modifications: heparan sulfate glycosaminoglycan chains (proteoglycan); cysteines bound to the maleimide of an NHS-PEG-Mal linker on the AFM tip
notes: syndecan-4, human, recombinant; No catalogue number printed; The R&D Systems product is probably the extracellular domain (surmised); also called SDC4; source: bought: R&D Systems
